Assay [1] deals with natural CD47 on the surface of CCRF-CEM cells (UniProt Q08722). Put plainly: flow cytometry on CCRF-CEM cells, sample at 1 ug/ml, Alexa Fluor 488 goat anti-human (H+L); blank control 30.0. (In general: In flow cytometry, cells or beads pass a laser one at a time.)
Assay [2] addresses T1, human CD47-his (Sino Biological, CAT#12283-HCCH-50) (human, UniProt Q08722 19-139, limits assumed).
T1 construct: Bought protein used as analyte in Biacore; also called 人CD47-his; human CD47-his antigen; not shown: His tag of the bought protein
Description: SPR (Biacore): antibody captured with human Fab capture kit on CM5 chip, human CD47-his flowed over.

Assay [3] concerns the target human CD47-his (Sino Biological, CAT#12283-HCCH-50) (human) (UniProt Q08722). Put plainly: SPR (Biacore), KD compared with hu167-4. Background: Surface plasmon resonance follows binding to a sensor surface in real time, without labels.
Assay [4] concerns the target natural CD47 on the surface of CCRF-CEM cells (UniProt Q08722). Put plainly: flow cytometry on CCRF-CEM cells, antibody at 1 ug/ml, Alexa Fluor 488 goat anti-human (H+L); blank control 30.0.

The term Kd denotes the free concentration of one partner at which half of the binding sites on the other are occupied at equilibrium, for simple one-to-one binding. What is called koff is the first-order rate constant of dissociation. Read a high koff as a short-lived complex. For orientation: kon means a measure of how fast the partners come together. Low readings indicate slow association, high ones fast association.

Where a chain is given by its changes, count along the chain named.

In assay [1], IgG4-Fc control returned a flow cytometry binding signal (流式结合信号) of 65.1.

B1: hu055-1 (antibody, V domains shown)
VH: QVQLVQSGAEVKKPGASVKVSCKASGYTFTSSYLHWVRQAPGQRLEWMGWIYPESGNTKYNERFKGRVTITRDTSASTAYMELSSLRSEDTAVYYCARRGDVFFAYWGQGTTVTVSS
VL: DIVMTQSPDSLAVSLGERATINCKSSQSLLTSGKQKNYLTWYQQKPGQPPKLLIYWASTRESGVPDRFSGSGSGTDFTLTISSLQAEDVAVYYCQNDYSYPLTFGQGTKLEIK
Regarding B1, in assay [2], the “KD fold difference (against ch-055)” value stood at 3.5; the affinity, expressed as Kd, was 0.585 nM; the koff worked out at 0.000976 s⁻¹; the kon turned out to be 1.67e+06 M⁻¹ s⁻¹.

B2: hu055-5 (antibody, V domains shown)
VH: B1 VH with E46D, M48I, V68A, I70L, R72A
VL: DIVMTQSPDSLAVSLGERATINCKSSQSLLTSGKQKNYLTWYQQKPGQPPKLLIYWASTRESGVPDRFSGSGSGTDFTLTISSLQAEDVAVYYCQNDYSYPLTFGQGTKLEIKR
For B2, in assay [2], the “KD fold difference (against ch-055)” value amounted to 1.1, the dissociation constant (Kd) was determined as 0.182 nM, the koff was determined as 0.000382 s⁻¹ and the kon was 2.1e+06 M⁻¹ s⁻¹.

B3: hu055-8 (antibody, V domains shown)
VH: B1 VH
VL: B1 VL with D66E
Take B3: in assay [2], the “KD fold difference (against ch-055)” value came out at 3.7, binding was put at a Kd of 0.617 nM, the koff turned out to be 0.000987 s⁻¹ and the kon was 1.6e+06 M⁻¹ s⁻¹.

B4: chimeric antibody ch-055 (antibody, V domains shown)
VH: QVLLQQSGPELVQPGASVKISCKASGYSFTSSYLHWVKQRPGQGLDWIGWIYPESGNTKYNERFKGKATLTADTSSSTAYMQLSSLTSEDSAVYYCSRRGDVFFAYWGQGTTLTVSS
VL: DIVMTQSPSYLTVTAGEKVTMSCKSSQSLLTSGKQKNYLTWYQQKPGQPPKLLIYWASTRESGVPERFRGSGSGTDFTLTISSVQAEDLAVYYCQNDYSYPLTFGAGTKLELN
As for B4, in assay [2], the “KD fold difference (against ch-055)” value came to 1, the Kd was 0.167 nM, the koff is 0.000389 s⁻¹ and the kon was determined as 2.32e+06 M⁻¹ s⁻¹.

B5: chimeric antibody ch-167 (antibody, V domains shown)
VH: QVQLQQPGAELVRPGSSVKLSCKASGYTFTSYWMHWVKQRPIQGLEWVGNIDPSDSETHYNQKFKDKATLTVDKSSSTAYMQLSSLTSEDSAVYYCARWGYLGRSAMDYWGQGTSVTVSS
VL: DVQITQSPSYLAASPGETITINCRTSKSISKFLAWYQEKPGKTHKLLIYSGSTLQSGIPSRFSGSGSGTDFTLTISSLEPEDFAMYYCQQHNEYPWTFGGGTKLEIK
Take B5: in assay [2], the “KD fold difference (against ch-167)” value was 1, the Kd was 0.325 nM, the koff worked out at 0.000558 s⁻¹ and the kon was determined as 1.72e+06 M⁻¹ s⁻¹.

B6: hu167-31 (antibody, V domains shown)
VH: QVQLVQSGAEVKKPGASVKVSCKASGYTFTSYWMHWVRQAPGQGLEWMGNIDPSDSETHYNQKFKDRVTMTRDTSISTAYMELSRLRSDDTAVYYCARWGYLGRSAMDYWGQGTTVTVSS
VL: DVQMTQSPSSLSASVGDRVTITCRTSKSISKFLAWYQQKPGKAPKLLIYSGSTLQSGVPSRFSGSGSGTDFTLTISSLQPEDFATYYCQQHNEYPWTFGGGTKVEIK
With B6, the KD ratio against hu167-4 in assay [3] stood at 1.3.

B7: hu167-33 (antibody, V domains shown)
VH: B6 VH
VL: B6 VL with M4I
Take B7: in assay [3], the KD ratio against hu167-4 was 0.98. The flow cytometry binding signal (流式结合信号) in assay [4] stood at 27800.

B8: hu167-32 (antibody, V domains shown)
VH: B6 VH
VL: B6 VL with V2I, M4I
Take B8: in assay [3], the KD ratio against hu167-4 is 1.2.

B9: hu167-1 (antibody, V domains shown)
VH: B6 VH
VL: B6 VL with V2I
On to B9, for which, in assay [2], the “KD fold difference (against ch-167)” value turned out to be 2.04, the Kd is 0.664 nM, the koff worked out at 0.000991 s⁻¹ and the kon amounted to 1.49e+06 M⁻¹ s⁻¹.

The values are drawn from patent WO2018095428A1 (dated 2018).
